Tests used:
Assay in all cases: cell-based or functional assay
[1] = molecular target: HIV-1 Env of isolate MGRM-D-008 (clade D) (HIV-1)
[2] = molecular target: HIV-1 IAVI-C3 envelope protein (Env) on pseudovirus (HIV-1)
[3] = molecular target: HIV-1 JRCSF envelope glycoprotein (Env) on pseudovirus (HIV-1)
[4] = molecular target: HIV-1 MGRM-F1-008 Env (pseudovirus) (HIV-1)
[5] = molecular target: HIV-1 93RW029 envelope glycoprotein (Env) (HIV-1)
[6] = molecular target: HIV-1 Env of pseudovirus THR0.18 (Acute), clade B (HIV-1)
[7] = molecular target: HIV-1 Env of isolate MGRM-D-024 (clade D) (HIV-1)
[8] = molecular target: HIV-1 92TH021 envelope protein (Env) on pseudovirus (HIV-1)
[9] = molecular target: HIV-1 93UG077 envelope glycoprotein (Env) (HIV-1)
[10] = molecular target: HIV-1 Env of isolate MGRM-D-026 (clade D) (HIV-1)
[11] = molecular target: HIV-1 Env of isolate MGRM-D-018 (clade D) (HIV-1)
[12] = molecular target: HIV-1 93IN905 Env (HIV-1)
[13] = molecular target: HIV-1 LAVI_C3 Env (HIV-1)
[14] = molecular target: HIV-1 Env of isolate MGRM-G-013 (clade G pseudovirus) (HIV-1)
[15] = molecular target: HIV-1 MGRM-A-008 envelope glycoprotein (Env) (HIV-1)
[16] = molecular target: HIV-1 92UG005 envelope glycoprotein (Env) on pseudovirus (HIV-1)
[17] = molecular target: HIV-1 Env of isolate PVO.4 (HIV-1)
[18] = molecular target: HIV-1 Env of isolate MGRM-G-016 (subtype G) (HIV-1)
[19] = molecular target: HIV-1 Env of isolate MGRM-D-014 (HIV-1)
[20] = molecular target: HIV-1 APV6 envelope glycoprotein (Env) on pseudovirus (HIV-1)
[21] = molecular target: HIV-1 Env of isolate MG RM-D-002 (subtype D) (HIV-1)
[22] = molecular target: HIV-1 Env of isolate MGRM-F1-018 (HIV-1)
[23] = molecular target: HIV-1 Env of isolate MGRM-C-022 (pseudovirus) (HIV-1 isolate MGRM-C-022, subtype C)
[24] = molecular target: HIV-1 Env of isolate 98CN009 (subtype CRF07_BC) (HIV-1)
[25] = molecular target: HIV-1 Env of isolate MG RM-AG-002 (HIV-1)
[26] = molecular target: HIV-1 MGRM-Chronic-B-001 Env (pseudovirus) (HIV-1)
[27] = molecular target: HIV-1 Env of isolate MG RM-D-011 (subtype D) (HIV-1)
[28] = molecular target: HIV-1 MGRM-Chronic-B-011 Env (pseudovirus) (HIV-1)
[29] = molecular target: HIV-1 MGRM-Chronic-B-008 Env (pseudovirus) (HIV-1)
[30] = molecular target: HIV-1 Env of isolate MGRM-F1-015 (HIV-1)
[31] = molecular target: HIV-1 Env of isolate MGRM-C-023 (pseudovirus) (HIV-1 isolate MGRM-C-023, subtype C)
[32] = molecular target: HIV-1 JRCSF Env (pseudovirus) (HIV-1) (UniProt P20871)
[33] = molecular target: HIV-1 Env of isolate MGRM-G-024 (HIV-1)
[34] = molecular target: HIV-1 JR-CSF Env P470A (HIV-1 (isolate JR-CSF)) (UniProt P20871)
[35] = molecular target: HIV-1 JR-CSF Env V127A (HIV-1 (isolate JR-CSF)) (UniProt P20871)
[36] = molecular target: HIV-1 JR-CSF Env L179A (HIV-1 (isolate JR-CSF)) (UniProt P20871)
[37] = molecular target: HIV-1 Env of isolate JRCSF (HIV-1) (UniProt P20871)
[38] = molecular target: HIV-1 Env of isolate 92UG001 (HIV-1)
[39] = molecular target: HIV-1 Env of isolate MGRM-D-018 (HIV-1)
[40] = molecular target: HIV-1 Env of isolate TRO.11 (HIV-1)

Sequence of 1443_C16 (PG16) (TCN-116) (antibody) (VH): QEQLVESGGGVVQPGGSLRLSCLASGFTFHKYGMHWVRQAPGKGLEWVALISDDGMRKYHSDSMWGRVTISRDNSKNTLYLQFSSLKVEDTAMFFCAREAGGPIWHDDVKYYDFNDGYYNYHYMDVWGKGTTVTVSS
Sequence of 1443_C16 (PG16) (TCN-116) (antibody) (VL): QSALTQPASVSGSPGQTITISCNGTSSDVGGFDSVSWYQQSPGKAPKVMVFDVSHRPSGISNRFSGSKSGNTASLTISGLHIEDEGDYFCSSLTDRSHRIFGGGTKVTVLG
Sequence of PGT-144 (4970_K22) (antibody) (VH): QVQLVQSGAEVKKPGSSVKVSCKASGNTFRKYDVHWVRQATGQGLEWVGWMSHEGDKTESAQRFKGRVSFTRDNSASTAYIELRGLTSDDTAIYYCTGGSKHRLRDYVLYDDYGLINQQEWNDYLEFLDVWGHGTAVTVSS
Sequence of PGT-144 (4970_K22) (antibody) (VL): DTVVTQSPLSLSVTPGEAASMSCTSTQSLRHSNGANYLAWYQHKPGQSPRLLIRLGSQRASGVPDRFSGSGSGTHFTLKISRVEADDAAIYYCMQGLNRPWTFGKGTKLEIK
Sequence of PGT-143 (4980_N08) (antibody) (VH): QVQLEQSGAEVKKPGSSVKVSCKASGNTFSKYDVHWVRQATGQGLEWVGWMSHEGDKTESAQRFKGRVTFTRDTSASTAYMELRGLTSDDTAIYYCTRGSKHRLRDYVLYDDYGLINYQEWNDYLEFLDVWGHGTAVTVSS
Sequence of PGT-143 (4980_N08) (antibody) (VL): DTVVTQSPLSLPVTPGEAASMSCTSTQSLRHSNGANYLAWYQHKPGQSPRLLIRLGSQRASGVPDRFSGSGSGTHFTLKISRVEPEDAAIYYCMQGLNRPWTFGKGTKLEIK
Sequence of PGT-142 (4995_E20) (antibody) (VH): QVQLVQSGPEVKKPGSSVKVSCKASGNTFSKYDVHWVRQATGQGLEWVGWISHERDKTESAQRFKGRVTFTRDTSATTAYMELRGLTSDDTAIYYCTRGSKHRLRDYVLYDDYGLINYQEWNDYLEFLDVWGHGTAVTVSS
Sequence of PGT-142 (4995_E20) (antibody) (VL): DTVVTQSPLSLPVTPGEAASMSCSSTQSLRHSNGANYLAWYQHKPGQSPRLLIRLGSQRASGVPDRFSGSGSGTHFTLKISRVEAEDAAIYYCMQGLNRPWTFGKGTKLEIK
Sequence of PGT-141 (4964_G22; 4993_K13) (antibody) (VH): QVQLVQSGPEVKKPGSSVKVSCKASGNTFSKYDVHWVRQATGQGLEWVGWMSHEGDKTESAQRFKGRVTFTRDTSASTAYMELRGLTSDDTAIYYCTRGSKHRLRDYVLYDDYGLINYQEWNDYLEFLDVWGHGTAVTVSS

Substance	IC50 (µg/ml), pseudovirus neutralization [1]	neutralization IC50 [2]	IC90 (pseudovirus neutralization) [3]	IC50 (µg/ml), pseudovirus neutralization [4]	IC50 (µg/ml), pseudovirus neutralization [5]	IC50 (µg/ml), pseudovirus neutralization [6]	IC50 (µg/ml), pseudovirus neutralization [7]	neutralization IC50 [8]	IC50 (µg/ml), pseudovirus neutralization [9]	IC50 (µg/ml), pseudovirus neutralization [10]	IC50 (µg/ml), pseudovirus neutralization [11]	IC50 [12]	IC50 [13]	IC50 (µg/ml), pseudovirus neutralization [14]	IC50 (µg/ml), pseudovirus neutralization [15]	neutralization IC50 [18]	also measured
2F5 (antibody)	> 50 µg/mL	> 50 µg/mL	25.3 µg/mL	1.61 µg/mL	> 50 µg/mL	> 50 µg/mL	> 50 µg/mL	1.51 µg/mL	3.3 µg/mL	4.37 µg/mL	4.05 µg/mL	> 50 µg/mL	> 50 µg/mL	0.59 µg/mL	> 50 µg/mL		IC90 (pseudovirus neutralization) [16]: > 50 µg/mL
2G12 (antibody)	> 50 µg/mL	> 50 µg/mL	5.38 µg/mL	> 50 µg/mL	> 50 µg/mL	> 50 µg/mL	> 50 µg/mL	> 50 µg/mL	> 50 µg/mL	> 50 µg/mL	0.12 µg/mL	> 50 µg/mL	> 50 µg/mL	> 50 µg/mL	> 50 µg/mL		IC90 (pseudovirus neutralization) [16]: > 50 µg/mL
4E10 (antibody)	42.9 µg/mL	5 µg/mL	44.1 µg/mL	2.75 µg/mL	15.5 µg/mL	4.68 µg/mL	3.6 µg/mL	1.9 µg/mL	10.6 µg/mL	2.95 µg/mL	3.9 µg/mL	1.26 µg/mL	2.85 µg/mL	1.15 µg/mL	7.59 µg/mL		IC90 (pseudovirus neutralization) [16]: > 50 µg/mL
1443_C16 (PG16) (TCN-116) (antibody)	> 50 µg/mL	14.8 µg/mL	0.013 µg/mL	> 50 µg/mL	3.83 µg/mL	1.34 µg/mL	0.02 µg/mL	0.127 µg/mL	> 50 µg/mL	> 50 µg/mL	0.004 µg/mL	0.25 µg/mL	9.55 µg/mL	> 50 µg/mL	> 50 µg/mL		IC50, pseudovirus neutralization (TZM-bl) [17]: 12.3 µg/mL; IC90 (pseudovirus neutralization) [16]: > 50 µg/mL
1495_C14 (PGC14) (antibody)	> 50 µg/mL	> 50 µg/mL		> 50 µg/mL	42 µg/mL	> 50 µg/mL	> 50 µg/mL	> 50 µg/mL	> 50 µg/mL	> 50 µg/mL	> 50 µg/mL	19 µg/mL	12 µg/mL	> 50 µg/mL	> 50 µg/mL		
1496_C09 (PG9) (TCN-109) (antibody)	6.86 µg/mL	12.9 µg/mL	< 0.0025 µg/mL		1.19 µg/mL	12.4 µg/mL	0.03 µg/mL	0.111 µg/mL		17.5 µg/mL		0.03 µg/mL	1.45 µg/mL			1.36 µg/mL	IC50 (µg/mL), pseudovirus neutralization [19]: 0.023 µg/mL; IC50 (ug/ml), neutralizing activity [20]: 0.214 µg/mL; IC50 neutralization [20]: 0.214 µg/mL; IC80, neutralization [20]: 1.13 µg/mL; IC90, neutralization [20]: 3.21 µg/mL; IC95, neutralization [20]: 9.65 µg/mL
4838_L06 (PGT-121) (antibody)																	IC50 (µg/mL), pseudovirus neutralization [21]: 0.006 µg/mL; IC50 [22]: 0.04 µg/mL; IC50 (µg/mL) neutralization [23]: 0.015 µg/mL; IC50 (µg/mL), pseudovirus neutralization [24]: 0.009 µg/mL; neutralization IC50 [25]: > 50 µg/mL; IC50, pseudovirus neutralization [26]: 0.102 µg/mL; IC50 (µg/mL), pseudovirus neutralization [27]: 0.018 µg/mL; IC50, pseudovirus neutralization [28]: > 50 µg/mL; IC50, pseudovirus neutralization [29]: 0.007 µg/mL; IC50 [30]: 28.4 µg/mL; IC50 (µg/mL) neutralization [31]: 0.017 µg/mL; IC50 (ug/ml), neutralizing activity [16]: > 10 µg/mL; IC50, pseudovirus neutralization [32]: 0.027 µg/mL; neutralization IC90 [32]: 0.223 µg/mL; neutralization IC95 [32]: 0.417 µg/mL
4877_D15 (PGT-122) (antibody)																	IC50 (µg/mL), pseudovirus neutralization [21]: 0.005 µg/mL; IC50 [22]: 0.563 µg/mL; IC50 (µg/mL) neutralization [23]: 0.012 µg/mL; IC50 (µg/mL), pseudovirus neutralization [24]: 0.013 µg/mL; neutralization IC50 [25]: > 50 µg/mL; IC50, pseudovirus neutralization [26]: 0.138 µg/mL; IC50 (µg/mL), pseudovirus neutralization [27]: 0.019 µg/mL; IC50, pseudovirus neutralization [33]: 0.033 µg/mL; IC50, pseudovirus neutralization [28]: > 50 µg/mL; IC50, pseudovirus neutralization [29]: 0.017 µg/mL; IC50 [30]: 31.4 µg/mL; IC50 (µg/mL) neutralization [31]: 0.027 µg/mL; IC50 (ug/ml), neutralizing activity [16]: > 10 µg/mL; IC50 (ug/ml), neutralizing activity [20]: 0.0851 µg/mL; IC50, pseudovirus neutralization [32]: 0.057 µg/mL
5145_B14 (PGT-127) (antibody)																	Fold IC50 increase relative to wild-type [34]: 1 fold; IC50 (µg/mL), pseudovirus neutralization [21]: 0.6 µg/mL; IC50 [22]: 3.59 µg/mL; Fold IC50 increase relative to wild-type [35]: 2.5 fold; IC50 (µg/mL) neutralization [23]: 0.41 µg/mL; IC50 (µg/mL), pseudovirus neutralization [24]: 0.09 µg/mL; neutralization IC50 [25]: > 50 µg/mL; IC50, pseudovirus neutralization [26]: > 50 µg/mL; IC50 (µg/mL), pseudovirus neutralization [27]: 0.015 µg/mL; IC50, pseudovirus neutralization [33]: > 50 µg/mL; IC50, pseudovirus neutralization [28]: 0.297 µg/mL; IC50, pseudovirus neutralization [29]: 21.5 µg/mL; IC50 [30]: > 50 µg/mL; IC50 (µg/mL) neutralization [31]: 1.08 µg/mL; IC50, pseudovirus neutralization [32]: 0.018 µg/mL; Fold IC50 increase relative to wild-type [36]: 2.5 fold
PGT-121 (antibody)																	IC50 neutralization [9]: 0.0459 µg/mL; Primary Neutralization Index (B cell culture well 4838 L06) [37]: 3.2; Primary Neutralization Index (B cell culture well 4873 E03) [37]: 2.2
PGT-122 (antibody)																	IC50 neutralization [9]: 0.191 µg/mL
PGT-141 (4964_G22; 4993_K13) (antibody)																4.69 µg/mL	
PGT-142 (4995_E20) (antibody)																8.17 µg/mL	
PGT-143 (4980_N08) (antibody)																7.6 µg/mL	
PGT-144 (4970_K22) (antibody)																> 50 µg/mL	
PGV04 (antibody)																0.019 µg/mL	IC50, pseudovirus neutralization [38]: 0.553 µg/mL; IC50 (µg/mL), pseudovirus neutralization [19]: 0.194 µg/mL; IC50 (µg/mL), pseudovirus neutralization [30]: 0.179 µg/mL; IC50 (µg/mL), pseudovirus neutralization [39]: 17.5 µg/mL
VRC01 (antibody)																0.063 µg/mL	IC50, pseudovirus neutralization [22]: 0.032 µg/mL; IC50, pseudovirus neutralization [19]: 0.332 µg/mL; IC50, pseudovirus neutralization [30]: 0.387 µg/mL; neutralization IC50 [37]: 0.164 µg/mL; neutralization IC50 [40]: 0.186 µg/mL; IC50, pseudovirus neutralization [39]: > 50 µg/mL; neutralization IC50 [17]: 0.218 µg/mL
b12 (antibody)	> 50 µg/mL	5 µg/mL	1.17 µg/mL	> 50 µg/mL	> 50 µg/mL	3.62 µg/mL	5.92 µg/mL	9.99 µg/mL	47 µg/mL	1.55 µg/mL	1.39 µg/mL	21.4 µg/mL	0.94 µg/mL	> 50 µg/mL	> 50 µg/mL		IC90 (pseudovirus neutralization) [16]: > 50 µg/mL

Source: US20200024330A1
